Drawing on article PMC4740876, this text covers stoichiometry N (hDot1L per mononucleosome) for one substance.

Experiment [1] has as its target unmodified mononucleosome. Put plainly: SEC-MALS; mononucleosomes (300 pmol) with the catalytic domain of hDot1L (8.5 nmol) in 25 mM Tris-HCl, 150 mM NaCl, pH 7.8, 4 °C 30 min; Superdex 200 10/300. A general note: Size exclusion chromatography separates by hydrodynamic size, large species first.
The target in experiment [2] is mononucleosome containing H2B-Ub (ubiquitin on Lys120 of H2B by a stable isopeptide linkage) (UniProt P62807). Described as above.

In the case of “cysteine-less catalytic domain of hDot1L, hDot1L(1–416)C44S/C74S/C178S (from UniProt Q8TEK3 2-417) (enzyme)”, the stoichiometry N (hDot1L per mononucleosome) in experiment [1] is 1; in experiment [2], 2.
